Like-named read-outs stand apart in the source and are kept apart here.
Key:
[1] = molecular target: oxidized human insulin B chain (human); test: cell-based or functional assay
[2] = molecular target: T1, ADAM9-Fc fusion protein (Mus musculus, UniProt Q61072); test: Cleavage of oxidized insulin B chain by soluble ADAM9-Fc (MALDI-TOF); assay type: biochemical; details: 2 mM inhibitor
T1 construct: the complete extracellular domain of ADAM9 (aa 1-698); made in house; host or cells: HEK293-EBNA1 cells (pCEP4), purified on Protein A Sepharose
T1 sequence (Q61072 206-698 limits assumed): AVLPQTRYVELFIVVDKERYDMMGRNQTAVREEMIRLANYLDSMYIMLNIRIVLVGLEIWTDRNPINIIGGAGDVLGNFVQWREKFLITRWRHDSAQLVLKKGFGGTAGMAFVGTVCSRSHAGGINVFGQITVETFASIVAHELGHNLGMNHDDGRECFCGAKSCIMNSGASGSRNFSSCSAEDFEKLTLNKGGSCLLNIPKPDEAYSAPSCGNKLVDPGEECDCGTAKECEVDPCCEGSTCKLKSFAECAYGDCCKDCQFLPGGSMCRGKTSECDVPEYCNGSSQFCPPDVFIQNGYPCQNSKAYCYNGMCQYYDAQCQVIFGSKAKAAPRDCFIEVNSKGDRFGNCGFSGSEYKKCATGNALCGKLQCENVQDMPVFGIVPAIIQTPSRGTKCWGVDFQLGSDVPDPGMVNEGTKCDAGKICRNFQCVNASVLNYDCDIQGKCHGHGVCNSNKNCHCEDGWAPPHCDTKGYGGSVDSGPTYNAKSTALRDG
Source text: The estimated cleavage sites (marked by an ↓), determined by mass spectrometry (MALDI-TOF), are indicated.

[3] = molecular target: T2, human CD23b (full length cDNA, expressed on transfected COS or CHO cells) (human) (UniProt P06734); test: cell-based or functional assay
T2 sequence (looked up): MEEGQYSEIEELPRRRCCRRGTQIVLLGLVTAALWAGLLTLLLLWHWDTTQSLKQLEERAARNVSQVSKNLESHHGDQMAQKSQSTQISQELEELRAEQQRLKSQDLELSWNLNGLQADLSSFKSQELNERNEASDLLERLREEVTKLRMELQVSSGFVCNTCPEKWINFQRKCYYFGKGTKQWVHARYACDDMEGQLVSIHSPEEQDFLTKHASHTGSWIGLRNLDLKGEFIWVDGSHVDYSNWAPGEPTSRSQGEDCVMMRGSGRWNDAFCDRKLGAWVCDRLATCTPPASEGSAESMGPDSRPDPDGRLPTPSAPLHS

[4] = molecular target: T2, human CD23b (full length cDNA, expressed on transfected COS or CHO cells) (human); test: cell-based or functional assay; remark: listed apart in the source

Chain of oxidized human insulin B chain (human) (peptide, as listed by the source): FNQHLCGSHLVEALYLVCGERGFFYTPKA

## soluble ADAM9-Fc fusion protein (ADAM9 aa 1-698 fused to human IgG1 Fc)
[1]
  peptide cleavage (MALDI-TOF) (cleavage sites): 2

## c1cnc2c(c1)ccc1cccnc12 [o-phenanthroline]
[2]
  inhibition of cleavage of the insulin B chain: completely inhibited

## ADAM9ACT (truncated cytoplasmic domain), transfected into COS cells (from UniProt Q61072 30-845) (enzyme)
[3]
  decrease in surface fluorescence intensity of CD23 (FACS, cotransfected COS cells, 48 h): 35 to 40%

B1: ADAM9 (full length cDNA, transfected into COS-7 or CHO AA8 cells) (enzyme, murine, UniProt Q61072 30-845, looked up)
chain: GRPDLEQTVHLSSYEIITPWRLTRERREALGPSSQQISYVIQAQGKQHIIHLERNTDLLPNDFVVYTYDKEGSLLSDHPNVQSHCHYRGYVEGVQNSAVAVSACFGLRGLLHLENASFGIEPLHNSSHFEHIFYPMDGIHQEPLRCGVSNRDTEKEGTQGDEEEHPSVTQLLRRRRAVLPQTRYVELFIVVDKERYDMMGRNQTAVREEMIRLANYLDSMYIMLNIRIVLVGLEIWTDRNPINIIGGAGDVLGNFVQWREKFLITRWRHDSAQLVLKKGFGGTAGMAFVGTVCSRSHAGGINVFGQITVETFASIVAHELGHNLGMNHDDGRECFCGAKSCIMNSGASGSRNFSSCSAEDFEKLTLNKGGSCLLNIPKPDEAYSAPSCGNKLVDPGEECDCGTAKECEVDPCCEGSTCKLKSFAECAYGDCCKDCQFLPGGSMCRGKTSECDVPEYCNGSSQFCPPDVFIQNGYPCQNSKAYCYNGMCQYYDAQCQVIFGSKAKAAPRDCFIEVNSKGDRFGNCGFSGSEYKKCATGNALCGKLQCENVQDMPVFGIVPAIIQTPSRGTKCWGVDFQLGSDVPDPGMVNEGTKCDAGKICRNFQCVNASVLNYDCDIQGKCHGHGVCNSNKNCHCEDGWAPPHCDTKGYGGSVDSGPTYNAKSTALRDGLLVFFFLIVPLVAAAIFLFIKRDELRKTFRKKRSQMSDGRNQANVSRQPGDPSISRPPGGPNVSRPPGGPGVSRPPGGPGVSRPPGGPGVSRPPPGHGNRFPVPTYAAKQPAQFPSRPPPPQPKISSQGNLIPARPAPAPPLYSSLT
[4]
  amount of s-CD23 in culture supernatant (ELISA), ADAM9 expression On against Off: 2 to 3 times
  decrease in surface bound CD23 (flow cytometry MFI, CHO clone 3, tetracycline removed): 40 to 50%
  decrease in surface fluorescence intensity of CD23 (FACS, cotransfected COS cells, 48 h): 35 to 40%

— patent US20030091568A1, “Inhibitors for the formation of soluble human CD23” (priority 2000, published 2003)
